Source: US7122624 (dated 2006)
No end group written: not given here.

Experiments:
[1] = target: glucagon receptor (human, UniProt P47871); experiment: competition, COS-7 cells, up to 1 uM
[2] = target: T1, PTH2 receptor (human); experiment: competition, [125I]TIP39, 10 uM GTPgS, HEK293 membranes
T1 chain: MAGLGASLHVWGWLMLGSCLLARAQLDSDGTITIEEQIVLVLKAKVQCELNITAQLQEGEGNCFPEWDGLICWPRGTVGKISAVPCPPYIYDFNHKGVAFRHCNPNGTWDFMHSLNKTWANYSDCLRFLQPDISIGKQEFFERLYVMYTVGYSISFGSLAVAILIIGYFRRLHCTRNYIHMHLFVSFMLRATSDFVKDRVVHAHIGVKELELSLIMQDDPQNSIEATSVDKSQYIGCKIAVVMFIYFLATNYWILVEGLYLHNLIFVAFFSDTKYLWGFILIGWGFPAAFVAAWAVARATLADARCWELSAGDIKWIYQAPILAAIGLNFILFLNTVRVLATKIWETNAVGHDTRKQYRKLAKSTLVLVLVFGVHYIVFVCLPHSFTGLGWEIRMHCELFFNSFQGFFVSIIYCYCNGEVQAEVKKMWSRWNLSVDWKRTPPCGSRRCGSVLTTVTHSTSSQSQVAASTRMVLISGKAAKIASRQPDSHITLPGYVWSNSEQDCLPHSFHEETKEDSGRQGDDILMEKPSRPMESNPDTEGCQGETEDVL

[3] = target: T2, PTH1 receptor (human, UniProt Q03431); experiment: competition, [125I]rPTH(1-34), 10 uM GTPgS, HEK293 membranes
T2 chain: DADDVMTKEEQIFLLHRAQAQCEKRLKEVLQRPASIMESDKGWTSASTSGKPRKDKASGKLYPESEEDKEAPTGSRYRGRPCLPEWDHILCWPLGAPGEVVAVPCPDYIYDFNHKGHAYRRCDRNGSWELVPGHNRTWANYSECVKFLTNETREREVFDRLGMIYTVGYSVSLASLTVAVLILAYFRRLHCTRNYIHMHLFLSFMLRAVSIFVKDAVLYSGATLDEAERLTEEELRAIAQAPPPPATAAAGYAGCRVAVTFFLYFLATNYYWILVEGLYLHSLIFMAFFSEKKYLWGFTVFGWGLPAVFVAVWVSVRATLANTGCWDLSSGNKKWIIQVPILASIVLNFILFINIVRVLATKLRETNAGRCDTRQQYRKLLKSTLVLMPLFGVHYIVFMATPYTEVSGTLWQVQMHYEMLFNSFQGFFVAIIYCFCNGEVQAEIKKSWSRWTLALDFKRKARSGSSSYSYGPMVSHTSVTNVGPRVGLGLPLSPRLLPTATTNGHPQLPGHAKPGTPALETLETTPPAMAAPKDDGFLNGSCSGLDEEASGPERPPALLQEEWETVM

[4] = target: T2, PTH1 receptor; experiment: other, radioligand kinetics, HEK293 membranes, 21C
[5] = target: T2, PTH1 receptor; experiment: other, radioligand saturation, HEK293 membranes, 21C

glucagon receptor, sequence (P47871 26-477): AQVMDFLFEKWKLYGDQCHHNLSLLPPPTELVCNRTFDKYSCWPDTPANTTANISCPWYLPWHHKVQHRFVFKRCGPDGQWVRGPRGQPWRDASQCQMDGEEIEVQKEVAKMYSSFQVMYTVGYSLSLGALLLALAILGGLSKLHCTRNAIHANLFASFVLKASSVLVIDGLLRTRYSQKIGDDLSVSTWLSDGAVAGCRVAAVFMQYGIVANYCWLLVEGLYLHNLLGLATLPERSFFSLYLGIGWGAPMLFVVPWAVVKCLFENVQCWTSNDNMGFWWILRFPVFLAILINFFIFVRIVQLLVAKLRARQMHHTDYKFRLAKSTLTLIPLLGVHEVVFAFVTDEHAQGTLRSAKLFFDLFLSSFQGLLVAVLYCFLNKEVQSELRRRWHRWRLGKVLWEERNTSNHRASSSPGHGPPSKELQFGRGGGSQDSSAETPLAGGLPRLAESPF

SLALADDAAFRERARLLAALERRHWLNSYMHKLLVLDAP [TIP39]: no binding [1].

Binder DAAFRERARLLAALERRHWLNSYMHKLLVLDAP [TIP(7-39)] has an IC50 [2] of 98 nM and an IC50 [3] of 5 nM.

With DAAFRERARLLAALERRHWLNSYMHKLLVLDAP (also: 125I label, site not given here) [[125I]TIP(7-39)] the Kd [4] was 0.57 nM and the Kd [5] was 1.3 nM.
